In assay [1] the target is T1, human αvβ3 integrin on HEK293-F cells (human, UniProt P06756 31-1048; P05106 27-788).
T1 construct: whole, on cells; HEK293-F cells transiently expressing the full length beta subunit; also called HEK cells expressing αvβ3
The experiment in a line: flow cytometry, titration of ADWA11 2.4 on HEK cells overexpressing human integrin β3 (gMFI minus secondary), right panel. On the procedure:
(§1) For cell-binding experiments with HEK293-F cells overexpressing human αvβ3, αvβ5, αvβ6, αvβ8. HEK293-F cells transiently expressing full length human integrin beta 3 (Accession No. NP_000203.2), human integrin beta 5 (Accession No. NP_002204.2), human integrin beta 6 (Accession No. NP_000879.2), or human integrin beta 8 (Accession No. NP_002205.1) were prepared using proprietary vectors and vendor provided protocols. Cells were harvested after 4 days and analyzed for integrin expression. To characterize Integrin αvβ3, αvβ5, αvβ6, αvβ8 expression 100,000 cells were incubated in the indicated commercially available or directly conjugated proprietary antibodies for 30 minutes, along with LIVE/DEAD fixable cell stain (Invitrogen) at 1:2000 to distinguish live cells. Cells were spun down for five minutes at 300 g force. The cells were then washed twice with wash buffer (PBS+0.2% BSA) to remove excess unbound antibodies and ananalysed on BD biosciences Fortessa flow cytometer
(§2) 100,000 cells were incubated with a dilution series of the anti-αvβ8 or human IgG1_3 mut Isotype antibody for three to four hours on ice. […] After washing, the stained cells were analyzed on BD biosciences Fortessa flow cytometer (gated for live cells) using FlowJo analysis software. The mean fluorescence intensities (MFI) at different antibody concentrations were plotted for various antibodies.

The target in assay [2] is T2, human αvβ8 integrin on U251 cells (human, UniProt P06756 31-1048). Briefly: flow cytometry, IgG binding to U251 cells (MFI PE-A), left panel ADWA11_IgG_U251 cell binding; EC50 unit inferred, axis Log10 [mAb] nM. (In general: Flow cytometry measures light scatter and fluorescence of single cells or particles in a stream.)
For assay [3], the target named is T3, mouse αvβ8 integrin on C8-S cells (mouse, UniProt P43406 31-1044; Q0VBD0 22-767). Briefly: cell-based or functional assay.
T3 sequence (P43406 31-1044 limits assumed, chain 1 of 2): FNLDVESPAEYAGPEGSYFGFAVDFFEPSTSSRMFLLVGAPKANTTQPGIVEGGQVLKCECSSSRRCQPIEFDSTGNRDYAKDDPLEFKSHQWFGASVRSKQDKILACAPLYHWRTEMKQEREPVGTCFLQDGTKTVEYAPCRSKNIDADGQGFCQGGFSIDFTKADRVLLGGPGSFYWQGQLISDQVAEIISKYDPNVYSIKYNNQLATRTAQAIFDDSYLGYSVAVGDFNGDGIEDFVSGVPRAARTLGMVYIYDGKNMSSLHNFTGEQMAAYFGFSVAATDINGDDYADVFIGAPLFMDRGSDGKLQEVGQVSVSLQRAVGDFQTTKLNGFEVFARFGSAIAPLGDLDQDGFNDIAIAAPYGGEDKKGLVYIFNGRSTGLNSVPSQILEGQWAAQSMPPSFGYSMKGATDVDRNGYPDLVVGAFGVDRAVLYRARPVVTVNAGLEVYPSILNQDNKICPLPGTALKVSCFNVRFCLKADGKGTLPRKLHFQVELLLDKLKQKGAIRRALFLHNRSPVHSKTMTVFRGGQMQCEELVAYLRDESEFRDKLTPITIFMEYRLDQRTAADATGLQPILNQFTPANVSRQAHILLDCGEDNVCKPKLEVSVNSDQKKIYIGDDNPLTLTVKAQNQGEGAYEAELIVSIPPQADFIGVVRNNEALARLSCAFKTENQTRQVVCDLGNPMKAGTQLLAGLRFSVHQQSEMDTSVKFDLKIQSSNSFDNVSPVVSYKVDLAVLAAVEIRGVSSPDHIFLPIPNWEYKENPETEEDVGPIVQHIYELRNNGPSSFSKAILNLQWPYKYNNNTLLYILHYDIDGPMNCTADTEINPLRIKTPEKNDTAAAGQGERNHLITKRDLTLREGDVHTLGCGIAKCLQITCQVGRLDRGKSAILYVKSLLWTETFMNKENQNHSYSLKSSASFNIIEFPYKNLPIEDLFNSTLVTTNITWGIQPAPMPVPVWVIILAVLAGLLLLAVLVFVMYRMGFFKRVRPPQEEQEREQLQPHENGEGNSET
T3 sequence (Q0VBD0 22-767 limits assumed, chain 2 of 2): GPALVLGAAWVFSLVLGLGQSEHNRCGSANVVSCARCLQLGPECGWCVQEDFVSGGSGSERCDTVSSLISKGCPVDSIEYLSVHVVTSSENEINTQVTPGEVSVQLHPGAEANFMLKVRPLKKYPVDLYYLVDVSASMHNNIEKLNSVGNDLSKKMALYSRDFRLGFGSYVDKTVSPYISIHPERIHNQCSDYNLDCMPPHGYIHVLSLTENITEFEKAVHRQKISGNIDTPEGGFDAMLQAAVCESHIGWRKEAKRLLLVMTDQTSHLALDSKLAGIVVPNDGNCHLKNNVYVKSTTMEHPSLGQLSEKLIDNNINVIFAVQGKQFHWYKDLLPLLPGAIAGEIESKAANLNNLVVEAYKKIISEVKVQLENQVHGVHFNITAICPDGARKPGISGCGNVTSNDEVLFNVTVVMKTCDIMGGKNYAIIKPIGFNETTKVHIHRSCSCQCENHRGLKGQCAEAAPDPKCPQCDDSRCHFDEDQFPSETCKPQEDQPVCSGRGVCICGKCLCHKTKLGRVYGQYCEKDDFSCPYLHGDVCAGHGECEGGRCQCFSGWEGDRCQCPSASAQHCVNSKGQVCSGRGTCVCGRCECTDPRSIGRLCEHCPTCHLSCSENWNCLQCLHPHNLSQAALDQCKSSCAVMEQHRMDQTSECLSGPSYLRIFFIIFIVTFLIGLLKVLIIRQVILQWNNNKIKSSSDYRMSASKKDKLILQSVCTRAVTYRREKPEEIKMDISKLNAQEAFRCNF
The target of assay [4] is T4, recombinant human αvβ6 integrin (human, UniProt P06756 31-992; P18564 22-707).
T4 construct: Used in ELISA and immobilised on the Biacore chip; construct not described; also called hαvβ6; AVB6
T4 sequence (P06756 31-992 limits assumed, chain 1 of 2): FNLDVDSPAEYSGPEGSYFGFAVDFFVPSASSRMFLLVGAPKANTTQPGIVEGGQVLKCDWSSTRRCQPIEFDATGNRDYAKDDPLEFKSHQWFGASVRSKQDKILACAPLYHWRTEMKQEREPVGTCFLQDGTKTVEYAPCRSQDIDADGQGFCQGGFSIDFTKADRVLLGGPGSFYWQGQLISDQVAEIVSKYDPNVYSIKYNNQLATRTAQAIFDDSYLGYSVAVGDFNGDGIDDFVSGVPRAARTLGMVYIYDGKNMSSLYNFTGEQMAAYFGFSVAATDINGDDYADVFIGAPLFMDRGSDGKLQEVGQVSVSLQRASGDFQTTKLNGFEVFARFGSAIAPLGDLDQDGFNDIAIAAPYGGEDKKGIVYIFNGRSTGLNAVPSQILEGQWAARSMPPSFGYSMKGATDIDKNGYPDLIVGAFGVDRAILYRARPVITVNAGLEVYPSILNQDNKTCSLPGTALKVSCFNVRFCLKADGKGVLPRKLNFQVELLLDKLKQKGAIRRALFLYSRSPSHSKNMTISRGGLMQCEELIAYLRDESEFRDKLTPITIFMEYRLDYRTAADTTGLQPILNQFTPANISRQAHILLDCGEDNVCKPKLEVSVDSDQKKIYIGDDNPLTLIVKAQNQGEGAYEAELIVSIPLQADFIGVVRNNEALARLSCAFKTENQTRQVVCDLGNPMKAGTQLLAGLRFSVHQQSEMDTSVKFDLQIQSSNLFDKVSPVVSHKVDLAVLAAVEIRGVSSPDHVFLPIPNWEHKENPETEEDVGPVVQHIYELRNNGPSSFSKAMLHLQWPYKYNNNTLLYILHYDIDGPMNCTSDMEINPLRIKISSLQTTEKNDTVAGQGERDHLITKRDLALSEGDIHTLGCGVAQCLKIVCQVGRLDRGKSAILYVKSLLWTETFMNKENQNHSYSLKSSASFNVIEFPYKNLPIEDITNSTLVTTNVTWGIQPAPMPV
T4 sequence (P18564 22-707 limits assumed, chain 2 of 2): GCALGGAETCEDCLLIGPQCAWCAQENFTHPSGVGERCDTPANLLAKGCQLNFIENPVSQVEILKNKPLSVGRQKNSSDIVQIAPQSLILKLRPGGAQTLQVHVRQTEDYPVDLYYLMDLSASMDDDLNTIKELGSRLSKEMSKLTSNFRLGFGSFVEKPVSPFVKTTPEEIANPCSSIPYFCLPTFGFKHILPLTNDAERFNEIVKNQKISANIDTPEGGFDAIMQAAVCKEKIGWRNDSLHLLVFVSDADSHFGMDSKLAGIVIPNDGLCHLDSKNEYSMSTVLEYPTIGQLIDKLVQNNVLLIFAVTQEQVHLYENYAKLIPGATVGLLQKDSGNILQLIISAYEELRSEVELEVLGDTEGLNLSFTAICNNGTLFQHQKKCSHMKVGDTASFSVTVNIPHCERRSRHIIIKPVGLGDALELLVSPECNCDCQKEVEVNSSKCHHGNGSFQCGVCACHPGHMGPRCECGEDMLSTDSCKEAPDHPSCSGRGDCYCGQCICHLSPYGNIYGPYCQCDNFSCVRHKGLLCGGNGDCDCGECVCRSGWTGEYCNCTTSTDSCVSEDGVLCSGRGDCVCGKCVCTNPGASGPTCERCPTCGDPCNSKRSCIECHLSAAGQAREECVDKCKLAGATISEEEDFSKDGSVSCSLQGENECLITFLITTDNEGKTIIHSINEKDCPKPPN
The experiment in a line: SPR (Biacore), recombinant integrin immobilised. On the procedure: (§3) To evaluate the specificity of ADWA11 2.4, recombinant human αvβ6 and αvβ3 were immobilized on a Biacore chip and binding of the parental murine and humanized mAb variant of ADWA11 2.4 was determined.

Assay [5] concerns the target T5, recombinant human αvβ3 integrin (human, UniProt P06756 31-992; P05106 27-718).
T5 construct: Used in ELISA and immobilised on the Biacore chip; construct not described; also called hαvβ3; AVB3
Briefly: SPR (Biacore), recombinant integrin immobilised. On the procedure: as §3

Assay [6] concerns the target T6, human αvβ5 integrin on HEK293-F cells (human, UniProt P06756 31-1048; P18084 24-799).
T6 construct: whole, on cells; HEK293-F cells transiently expressing the full length beta subunit; also called HEK cells expressing αvβ5
Briefly: flow cytometry, titration of ADWA11 2.4 on HEK cells overexpressing human integrin β5 (gMFI minus secondary), right panel. On the procedure: as §1, §2

In assay [7] the target is T2, human αvβ8 integrin on U251 cells. Briefly: cell-based or functional assay.
Assay [8] has the same target. The experiment in a line: flow cytometry on U251 cells.
Assay [9] deals with T7, human αvβ8 integrin on HEK293-F cells (human, UniProt P06756 31-1048; P26012 43-769).
T7 construct: whole, on cells; HEK293-F cells transiently expressing the full length beta subunit; also called HEK cells expressing αvβ8
Briefly: flow cytometry, titration on HEK cells overexpressing human integrin β8, right panel. On the procedure:
as §1, §2

The target of assay [10] is T8, human αvβ6 integrin on HEK293-F cells (human, UniProt P06756 31-1048; P18564 22-788).
T8 construct: whole, on cells; HEK293-F cells transiently expressing the full length beta subunit; also called HEK cells expressing αvβ6
The experiment in a line: flow cytometry, titration of ADWA11 2.4 on HEK cells overexpressing human integrin β6 (gMFI minus secondary), right panel. The procedure:
as §1, §2

The target of assay [11] is T2, human αvβ8 integrin on U251 cells. Briefly: flow cytometry on live U251 cells, 4 hours on ice, anti-human-PE secondary, n=3.
The target in assay [12] is T3, mouse αvβ8 integrin on C8-S cells. Briefly: flow cytometry on C8-S cells. On the procedure: (§4) 100,000 cells were incubated with a dilution series of the anti-αvβ8 or human IgG1_3 mut Isotype antibody for three to four hours on ice. The cells were spun down for five minutes at 300 g force. The cells were then washed three times with wash buffer (PBS+0.2% BSA) to remove excess unbound antibodies. After thorough washing, cells were incubated with Fab′2 anti-human Fc-PE (Invitrogen) or goat Fab′2 anti-mouse-APC (Jackson Labs) at 1:1000 dilution along with LIVE/DEAD fixable cell stain (Invitrogen) at 1:2000 to distinguish live cells. The whole content was incubated for 30 minutes on ice. After washing, the stained cells were analyzed on BD biosciences Fortessa flow cytometer (gated for live cells) using FlowJo analysis software. The mean fluorescence intensities (MFI) at different antibody concentrations were plotted for various antibodies.
(§5) The apparent-affinity of ADWA11 2.4 for U251 (human glioblastoma) or C8-S (mouse astrocyte) cells was also evaluated in a cell-binding assay, according to the methods as generally described herein. Briefly, cells were incubated with a serial dilution of ADWA11 2.4 for 4 hours on ice, followed by detection on bound antibody with an anti-human-PE secondary antibody, and analyzed by flow cytometry.

In assay [13] the target is T2, human αvβ8 integrin on U251 cells.
Assay [14] has as its target T3, mouse αvβ8 integrin on C8-S cells. Briefly: flow cytometry, IgG binding to C8-S cells (MFI PE-A), right panel ADWA11_IgG_C8-S cell binding; EC50 unit inferred, axis Log10 [mAb] nM. The procedure:
as §4, §5

T5 sequence (P06756 31-992 limits assumed, chain 1 of 2): as the sequence (P06756 31-992 limits assumed, chain 1 of 2) above
T5 sequence (P05106 27-718 limits assumed, chain 2 of 2): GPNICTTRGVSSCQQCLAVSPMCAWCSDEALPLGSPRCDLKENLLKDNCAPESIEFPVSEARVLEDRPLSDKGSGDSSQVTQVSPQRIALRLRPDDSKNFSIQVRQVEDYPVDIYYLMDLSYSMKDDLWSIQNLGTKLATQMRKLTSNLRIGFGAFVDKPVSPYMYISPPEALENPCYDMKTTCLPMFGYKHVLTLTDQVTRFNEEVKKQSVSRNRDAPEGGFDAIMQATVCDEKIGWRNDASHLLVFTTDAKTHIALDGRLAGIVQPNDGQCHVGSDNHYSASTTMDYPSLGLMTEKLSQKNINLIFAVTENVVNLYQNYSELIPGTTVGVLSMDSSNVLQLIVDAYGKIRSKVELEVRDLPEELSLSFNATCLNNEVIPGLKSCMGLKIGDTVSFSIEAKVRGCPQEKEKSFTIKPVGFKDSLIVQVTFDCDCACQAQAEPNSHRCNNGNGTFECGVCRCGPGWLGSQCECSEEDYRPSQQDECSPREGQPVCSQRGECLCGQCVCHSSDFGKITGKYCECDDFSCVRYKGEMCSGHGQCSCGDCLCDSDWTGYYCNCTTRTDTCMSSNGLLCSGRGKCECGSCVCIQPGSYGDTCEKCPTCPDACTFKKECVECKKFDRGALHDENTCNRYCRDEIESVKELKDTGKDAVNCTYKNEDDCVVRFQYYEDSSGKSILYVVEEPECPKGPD

B1: ADWA11 2.4 (IgG) (antibody, V domains shown)
VH: EVQLVESGGGLVQPGGSLRLSCAASGFNIKDYYMNWVRQAPGKGLEWVGWIDPDQGNTIYEPKFQGRFTISADTSKNSAYLQMNSLRAEDTAVYYCARRLLMDYWGQGTLVTVSS
VL: DIQMTQSPSSLSASVGDRVTITCRSTKSLSHFNGNTYLFWYQQKPGKAPKRLIYYMSSLASGVPSRFSGSGSGTDFTLTISSLQPEDFATYYCQQSLEYPFTFGGGTKVEIKR
notes: Human IgG1 effectorless (L234A, L235A, G237A), kappa; also called ADWA11 VH05-2/VK01(2.4); ADWA11_VH05-2_VK01(2.4)
As a reminder, the EC50 is the concentration that produces a half-maximal response. A high value points to weaker potency. A word on the EC50 (read off the curve): it is the concentration at which the effect is half-maximal. The low end stands for greater potency, the high end for weaker potency. Take B1: the binding result in assay [1] was “no binding (tested: 100 nM)”; in assay [4] it was “no binding”; in [5], “no binding”; in assay [6], “no binding (tested: 100 nM)”; in assay [10], “no binding (tested: 100 nM)”. Besides, the EC50 in assay [2] worked out at 0.105 nM; in [8], 0.256 nM; in [11], 0.126 nM; in assay [12] it was 0.145 nM; in assay [14] it was 0.115 nM. The entries for the “IC50 (read off the curve)” value in [3] and in [13] were roughly 0.2 nM and 0.1 nM, respectively. Further, the IC50 in the TGFβ transactivation assay with U251 cells in [7] was determined as 0.199 nM. In assay [9], the “EC50 (read off the curve)” value was roughly 2 nM.
